Measured values published in patent publication US20050271676A1, “Inducing cellular immune responses to human immunodeficiency virus-1 using peptide and nucleic acid compositions” (Epimmune Inc., priority 1993, published 2005).
No end group written: not given here.

Columns and labels:
HLA-A*0301 = target: T1, HLA-A*0301 (Homo sapiens, UniProt P04439); assay: purified HLA class I binding assay, A*0301
T1 construct: endogenous in cells; host or cells: GM3107

HLA-A*1101 = HLA-A*1101 (Homo sapiens, UniProt P04439, A114D/D185E/E176A/F33Y/L180Q/S129P/T187R); assay: purified HLA class I binding assay, A*1101; conditions: for A*1101 binding: HIV A11 motif peptides (GAG)
HLA-B*0702 = target: T2, HLA-B*0702 (Homo sapiens, UniProt P01889); assay: purified HLA class I binding assay, B*0702; conditions: for B*0702 (binding information): HIV B07 supermotif peptides, binding value for purified HLA-B*0702, unit not given; for B*0702 binding (HIV B07 Super Motif Peptides with Binding Information): purified HLA-B*0702, binding value without unit
T2 construct: endogenous in cells; host or cells: GM3107

HLA-A*0201 = HLA-A*0201 (Homo sapiens, UniProt P04439, D140Y/D185E/D98H/E176V/E277Q/G131W/G231S/I119V/I121R/I166T/I218V/L300P/L318F/N151K/N90K/P208A/P217A/Q86G/Q94H/R138H/R169H/T345S); assay: purified HLA class I binding assay, A*0201; conditions: unit not given; for A*0201 (binding information): Table VIII
[1] = HIV POL-derived A03 motif peptides, binding value for purified HLA-A*0301, unit not given
[2] = Table IX, HIV A03 super motif peptides, binding value, unit not given
[3] = Table XVII, HIV A11 motif peptides, binding value A*1101, unit not given
[4] = HIV A03 motif peptides, Table XVI, binding value unit not given
[5] = HIV A03 supermotif peptides, binding value, no unit given
[6] = HIV A02 Super Motif Peptides with Binding Information
[7] = HIV A11 motif peptides, Table XVII, unit not given
[8] = Table XVI, binding value for purified HLA-A*0301, unit not given
[9] = Table XVII, HIV A11 motif peptides, binding value for purified HLA-A*1101, unit not given
[10] = HIV A03 supermotif peptides, Table IX, unit not given

## VASCDKCQLK
HLA-A*0301; [1]
  A0301 (HIV A03 Motif Peptides with Binding Information): 0.0004
HLA-A*0301; [2]
  A*0301 binding information: 0.0004
HLA-A*1101; [2]
  A*1101 (binding information): 0.0004
HLA-A*1101; [3]
  A*1101 (binding information): 0.0004

## RIVELLGRR [1273.04]
HLA-A*0301
  IC50: 200 nM
HLA-A*1101
  IC50: 600 nM

## ISPILTVPVK
HLA-A*1101; [3]
  A*1101 (binding information): 0.0310

## VPRRKAKII
HLA-B*0702
  B*0702 (binding information): 0.4800

## IIPGSQPKTA
HLA-B*0702
  B*0702 (binding information): 0.0007

## MVIIQAISPR
HLA-A*0301; [4]
  A0301 (binding information): 0.1800
HLA-A*1101; Table XVII, unit not given
  A*1101 binding: 0.0670

## IILKTAVQMA
HLA-A*0201; HIV A02 super motif peptides
  A*0201 (binding information): 0.0033
HLA-A*0301; [1]
  A0301 (HIV A03 Motif Peptides with Binding Information): 0.0003

## IVASCDKCQLK
HLA-A*0301; [5]
  A*0301 binding information: 0.0970
HLA-A*0301; [1]
  A0301 (HIV A03 Motif Peptides with Binding Information): 0.0970
HLA-A*1101; [5]
  A*1101 (binding information): 0.1000
HLA-A*1101; [3]
  A*1101 (binding information): 0.1000

## ELQAIIILAL
HLA-A*0201; HIV A02 super motif peptides
  A*0201 (binding information): 0.0001

## IIPVIIAGPIA
HLA-B*0702
  B*0702 binding (HIV B07 Super Motif Peptides with Binding Information): 0.0590

## QMIIEDIISL
HLA-A*0201; [6]
  A*0201 (binding information): 0.0023

## HPVIIAGPI
HLA-B*0702
  B*0702 binding (HIV B07 Super Motif Peptides with Binding Information): 0.0012

## CVKLTPLCVT
HLA-A*0201; HIV A02 super motif peptides
  A*0201 (binding information): 0.0001

## KVYLAWVPAIIK
HLA-A*0301; [5]
  A*0301 binding information: 8.6000
HLA-A*1101; [5]
  A*1101 (binding information): 2.3000

## LPGRWKPKM
HLA-B*0702
  B*0702 (binding information): 0.0038

## EPIPIIIYCA
HLA-B*0702
  B*0702 binding (HIV B07 Super Motif Peptides with Binding Information): 0.0001

## KIWPSIIKGR
HLA-A*0301; [4]
  A0301 (binding information): 0.0770

## KAYDTEVIINV
HLA-A*0201; HIV A02 super motif peptides
  A*0201 (binding information): 0.0013

## KVYLAWVPAII
HLA-A*0301; HIV A03 motif peptides, Table XVI, column A0301, unit not given
  A0301 binding: 8.6000

## ILKEPVIIGV
HLA-A*0201; HIV A02 super motif peptides
  A*0201 (binding information): 0.0055

## MTKILIEPFR
HLA-A*1101; [3]
  A*1101 (binding information): 0.0160

## IILALQDSGL
HLA-A*0201; HIV A02 super motif peptides
  A*0201 (binding information): 0.0005

## AVDLSIIFLK
HLA-A*0301; HIV A03 motif peptides, Table XVI, binding value to purified HLA-A*0301, unit not given
  A0301 (binding information): 0.0740
HLA-A*1101; [7]
  A*1101 (binding information): 1.1000

## EPIVGAEIP
HLA-B*0702
  B*0702 (binding information): 0.0001

## KLVDFRELNK
HLA-A*0301; [2]
  A*0301 binding information: 0.5100
HLA-A*0301; [8]
  A0301 (binding information, HIV A03 motif peptides): 0.5100
HLA-A*1101; [7]
  A*1101 (binding information): 0.0900
HLA-A*1101; [2]
  A*1101 (binding information): 0.0900

## LVITFYWGL
HLA-A*0201; binding value for purified HLA-A*0201 as printed in Table VIII
  A*0201 (HIV A02 Super Motif Peptides with Binding Information): 0.0031

## DTEVIINVWA
HLA-A*0201; [6]
  A*0201 (binding information): 0.0001

## NVWAIIIACV
HLA-A*0201; [6]
  A*0201 (binding information): 0.0002

## CVKLTPLCV
HLA-A*0201; [6]
  A*0201 (binding information): 0.0002

## SDLEIGQIIR
HLA-A*1101; [3]
  A*1101 (binding information): 0.0001

## VPLDKDFRKY
HLA-B*0702
  B*0702 (binding information): 0.0002

## KPCVKLTPLC
HLA-B*0702
  B*0702 binding (HIV B07 Super Motif Peptides with Binding Information): 0.0004

## NTPVPAIK
HLA-A*1101; binding value to purified HLA-A*1101 in Table XVII, unit not given
  A*1101 (HIV A11 Motif Peptides with Binding Information): 0.0003

## GIPIIPAGLK
HLA-A*1101; [3]
  A*1101 (binding information): 0.0650

## VTVYYGVPVW
HLA-A*0301; purified HLA-A*0301 binding value as printed in Table XVI, unit not given
  A0301 (binding information, HIV A03 motif peptides): 0.8600
HLA-A*1101; [9]
  A*1101 (binding information): 4.1000

## QIYQEPPKNLK
HLA-A*0301; [5]
  A*0301 binding information: 0.2800
HLA-A*1101; [5]
  A*1101 (binding information): 0.2900

## TYQCTIIGIK
HLA-A*1101; [9]
  A*1101 (binding information): 0.0460

## WTVQVIPLPEK
HLA-A*0301; HIV A03 motif peptides, binding value to HLA-A*0301 as printed, no unit given
  A0301 (binding information): 0.0011

## EPVDPRLEPW
HLA-B*0702
  B*0702 (binding information): 0.0001

## LPEKDSWTV
HLA-B*0702
  B*0702 (binding information): 0.0001

## GIRYQYNYL
HLA-A*0201; HIV A02 super motif peptides
  A*0201 (binding information): 0.0001

## HPAGLKKKKS
HLA-B*0702
  B*0702 (binding information): 0.0001

## LYSAGIRK
HLA-A*1101; binding to purified HLA-A*1101, unit not given
  A*1101 (HIV A11 Motif Peptides with Binding Information): 0.0054

## ATLYCVIIQR
HLA-A*0301; [10]
  A*0301 binding information: 0.0150
HLA-A*0301; binding value to purified HLA-A*0301, unit not given
  A0301 (HIV A03 Motif Peptides with Binding Information): 0.0150
HLA-A*1101; [10]
  A*1101 (binding information): 0.7100
HLA-A*1101; Table XVII, unit not given
  A*1101 binding: 0.7100

## LYSAGIRKYL
HLA-A*0201; HIV A02 supermotif peptides
  A*0201 (binding information): 0.0002

## QLDCTIILEGK
HLA-A*0301; [8]
  A0301 (binding information, HIV A03 motif peptides): 0.0010
HLA-A*1101; [3]
  A*1101 (binding information): 0.0003

## KIEELRQIILL
HLA-A*0201; HIV A02 supermotif peptides
  A*0201 (binding information): 0.0002

## GIPIIPAGLKK
HLA-A*0301; [1]
  A0301 (HIV A03 Motif Peptides with Binding Information): 0.0110
HLA-A*1101; [3]
  A*1101 (binding information): 0.1700

## EPFKNLKTGK
HLA-B*0702
  B*0702 (binding information): 0.0001

## IIPRISSEVHI
HLA-B*0702
  B*0702 (binding information): 0.0330

## SPRTLNAWYK
HLA-B*0702
  B*0702 binding (HIV B07 Super Motif Peptides with Binding Information): 0.0076

## GPKVKQWPL
HLA-B*0702
  B*0702 (binding information): 0.0150

## PCIMDGPKVK
HLA-A*1101; [3]
  A*1101 (binding information): 0.0001

## TPPLVKLWYQ
HLA-B*0702
  B*0702 (binding information): 0.0001

## IIGVYYDPSK
HLA-A*1101; [3]
  A*1101 (binding information): 0.0001

## STVQCTIIGI
HLA-A*0201; [6]
  A*0201 (binding information): 0.001

## KVKQWPLTEE
HLA-A*0301; [1]
  A0301 (HIV A03 Motif Peptides with Binding Information): 0.0750
HLA-A*1101; [3]
  A*1101 (binding information): 0.0330
